# Measurements: PMC5817723, “^99mTc-HYNIC-(tricine/EDDA)-FROP peptide for MCF-7 breast tumor targeting and imaging” (Journal of Biomedical Science, 2018)
# Where two headings read alike, the source gives them in different places. Residues, ends and D or L forms follow the SMILES beside them. *: point of attachment. HYNIC = NNc1ccc(C(=O)*)cn1
# What was measured:
# [1] = Biodistribution in MCF-7 tumor-bearing nude mice; format: in vivo; conditions: female, C57 nu/nu, mouse, iv, total radioactivity; for tissue uptake at 0.5 h / tissue to tissue ratio at 0.5 h: 30 min p.i.
# Procedure: The all animal studies were approved by Research and Ethical Committees of Mazandaran University of Medical Sciences. For xenografting, female C57 nu/nu mice were injected subcutaneously on the right upper back with a suspension of 1 × 10^7 MCF-7 cells and Matrigel® (BD, USA) and the tumors were allowed to grow for about 7–8 weeks. Estradiol valerate was injected subcutaneously into nude mice for 1 week. After tumor size reached in 1 cm^3, this tumor was removed from mouse in aseptic condition and was mechanically squelched with a mortar and with adding complete medium. Squelch of tumor tissue was centrifuged at 1500 rpm for 7 min at 4 °C. The upper medium was removed from tube and then complete medium and estradiol were added to cells pellet. […] Xenografts were allowed to develop during 2 months and the average tumor size was 1.01 ± 0.24 g. The in vivo biodistribution of ^99mTc-HYNIC-(tricine/EDDA)-Lys-FROP was performed on tumor bearing mice at 15 and 30 min post-injection. The mice (four mice in each time group) were injected with 100 μL of HYNIC-(tricine/EDDA)-Lys-FROP (1 μg) via a lateral tail vein. Mice were sacrificed with injection of a lethal dose of ketamine/xylazine after 15 and 30 min. The blood was collected from the heart puncture and the mice were dissected. Major organs (tumor, blood, heart, lung, liver, kidney, spleen, salivary gland, stomach, intestine, muscle and bone) were placed into pre weighed gamma counter tubes and radioactivity in each organ and tissue was measured using a gamma counter and expressed as a percent injected dose (% ID/g).
# To confirm that the radiolabeled peptide was taken up specifically by MCF-7 tumor in vivo, the biodistribution of ^99mTc-HYNIC-FROP was performed with co-injection of a 500-fold (0.5 mg) excess non-radiolabelled FROP-1 and radiolabelled peptide in mice (N = 3 mice in this group). The unlabeled peptide was injected at 30 min before the injection of radiolabeled peptide.
# [2] = In vitro stability in succinate buffer (peptide reaction mixture), %RCP by ITLC; format: physicochemical; conditions: room temperature, TLC, n = 3
# Procedure: The radiochemical purity was determined by instant thin layer chromatography (ITLC) in different mobile phases such as methyl ethyl ketone (MEK), acetonitrile/water (50/50) and citrate solvent (0.1 M, pH 5.2) using a Lablogic mini scan TLC scanner (Sheffield, UK) and Laura image analysis software. In MEK, free ^99mTcO4^− migrated with the solvent front, while radiolabeled peptide remained at the application point. In the acetonitrile/water system, the colloids remained at the application point, while radiolabeled peptide migrated in front of solvent. The amount of labeled co-ligand was determined by citrate solvent, that free ^99mTcO4 Na and labeled co-ligand migrate in front of solvent while both RHT and labeled peptide (^99mTc-FROP) remind at the origin. A NaI (Tl) gamma detector (Delshid, Tehran, Iran) was used to for measurement of radioactivity.
# […] For serum stability, ^99mTc-HYNIC-FROP (30 μL) was incubated with freshly human plasma serum (90 μL) in triplicate at 37 °C. At 1 h of incubation, the plasma proteins were precipitated with a mixture of acetonitrile/ethanol (1:1 v/v) and centrifugation. The supernatant layer was filtered through a 0.22 μm filter and then the fraction was analyzed by RP-HPLC. Partition coefficient of ^99mTc-HYNIC-FROP was determined via method that previously was described.
# [3] = test system: MCF-7, A-549 SKOV-3, PC-3, T47D and HFFF2 cell lines; assay: Cellular uptake on different cell lines; format: cell-based, human; conditions: 40 nM, 37 °C, 1 h
# Procedure: The cellular uptake studies of ^99mTc-HYNIC-(tricine/EDDA)-FROP were performed on MCF-7, A-549 SKOV-3, PC-3, T47D and HFFF2 cell lines. The cells (5 × 10^5) were seeded in 12-well plates overnight and incubated with ^99mTc-HYNIC-FROP (40 nM) at 37 °C for 1 h. Incubation of the samples was terminated by removing medium and washing with cold serum-free medium. Thereafter, the cells were detached by trypsin and the radioactivity in the cell suspension was quantified.
# [4] = 5 × 10^5 cells, cell-associated radioactivity
smiles,measurement,setting,value
"CSCC[C@H](NC(=O)[C@H](CC(C)C)NC(=O)[C@H](CCC(=O)O)NC(=O)[C@H](Cc1ccc(O)cc1)NC(=O)[C@H](CC(=O)O)NC(=O)[C@@H](N)CCC(=O)O)C(=O)N[C@@H](CC(=O)O)C(=O)N[C@@H](CC(C)C)C(=O)N[C@@H](CC(C)C)C(=O)N[C@@H](C)C(=O)N[C@@H](Cc1ccc(O)cc1)C(=O)N[C@@H](CC(C)C)C(=O)N[C@@H](CCCCNC(=O)c1ccc(NN)nc1)C(=O)O [^99mTc-HYNIC-FROP, metal not drawn] (H-EDYELMDLLAYLK(HYNIC)-OH)",tissue uptake at 0.25 h,"[1]; blood, 1 ug, i.v. tail vein 1 μg, 15 min p.i., n = 4, read-out: Blood uptake",0.48 ± 0.09 %ID/g
same,tissue uptake at 0.5 h,"[1]; blood, 1 ug, i.v. tail vein 1 μg, n = 4, read-out: Blood uptake",0.35 ± 0.1 %ID/g
same,tissue uptake at 0.25 h,"[1]; blood, Block: 500-fold (0.5 mg) excess unlabelled FROP-1, 15 min p.i., n = 3, read-out: Blood uptake",0.69 ± 0.16 %ID/g
same,tissue uptake at 0.25 h,"[1]; bone, 1 ug, i.v. tail vein 1 μg, 15 min p.i., n = 4, read-out: Bone uptake",0.18 ± 0.02 %ID/g
same,tissue uptake at 0.5 h,"[1]; bone, 1 ug, i.v. tail vein 1 μg, n = 4, read-out: Bone uptake",0.24 ± 0.12 %ID/g
same,tissue uptake at 0.25 h,"[1]; heart, 1 ug, i.v. tail vein 1 μg, 15 min p.i., n = 4, read-out: Heart uptake",0.49 ± 0.08 %ID/g
same,tissue uptake at 0.5 h,"[1]; heart, 1 ug, i.v. tail vein 1 μg, n = 4, read-out: Heart uptake",0.26 ± 0.11 %ID/g
same,tissue uptake at 0.25 h,"[1]; heart, Block: 500-fold (0.5 mg) excess unlabelled FROP-1, 15 min p.i., n = 3, read-out: Heart uptake",0.45 ± 0.03 %ID/g
same,tissue uptake at 0.25 h,"[1]; intestine, 1 ug, i.v. tail vein 1 μg, 15 min p.i., n = 4, read-out: Intestine uptake",0.34 ± 0.09 %ID/g
same,tissue uptake at 0.5 h,"[1]; intestine, 1 ug, i.v. tail vein 1 μg, n = 4, read-out: Intestine uptake",0.79 ± 0.25 %ID/g
same,tissue uptake at 0.25 h,"[1]; intestine, Block: 500-fold (0.5 mg) excess unlabelled FROP-1, 15 min p.i., n = 3, read-out: Intestine uptake",0.64 ± 0.09 %ID/g
same,tissue uptake at 0.25 h,"[1]; 1 ug, MCF-7 tumor, i.v. tail vein 1 μg, 15 min p.i., n = 4, read-out: Tumor uptake",0.25 ± 0.02 %ID/g
same,tissue uptake at 0.5 h,"[1]; 1 ug, MCF-7 tumor, i.v. tail vein 1 μg, n = 4, read-out: Tumor uptake",0.38 ± 0.21 %ID/g
same,tissue uptake at 0.25 h,"[1]; MCF-7 tumor, Block: 500-fold (0.5 mg) excess unlabelled FROP-1, 15 min p.i., n = 3, read-out: Tumor uptake",0.09 ± 0.02 %ID/g
same,tissue uptake at 0.25 h,"[1]; kidney, 1 ug, i.v. tail vein 1 μg, 15 min p.i., n = 4, read-out: Kidney uptake",2.22 ± 0.16 %ID/g
same,tissue uptake at 0.5 h,"[1]; kidney, 1 ug, i.v. tail vein 1 μg, n = 4, read-out: Kidney uptake",1.73 ± 0.15 %ID/g
same,tissue uptake at 0.25 h,"[1]; kidney, Block: 500-fold (0.5 mg) excess unlabelled FROP-1, 15 min p.i., n = 3, read-out: Kidney uptake",2.97 ± 0.23 %ID/g
same,tissue uptake at 0.25 h,"[1]; liver, 1 ug, i.v. tail vein 1 μg, 15 min p.i., n = 4, read-out: Liver uptake",0.2 ± 0.02 %ID/g
same,tissue uptake at 0.5 h,"[1]; liver, 1 ug, i.v. tail vein 1 μg, n = 4, read-out: Liver uptake",0.14 %ID/g
same,tissue uptake at 0.25 h,"[1]; liver, Block: 500-fold (0.5 mg) excess unlabelled FROP-1, 15 min p.i., n = 3, read-out: Liver uptake",0.26 ± 0.04 %ID/g
same,tissue uptake at 0.25 h,"[1]; lung, 1 ug, i.v. tail vein 1 μg, 15 min p.i., n = 4, read-out: Lung uptake",0.45 ± 0.08 %ID/g
same,tissue uptake at 0.5 h,"[1]; lung, 1 ug, i.v. tail vein 1 μg, n = 4, read-out: Lung uptake",0.41 ± 0.26 %ID/g
same,tissue uptake at 0.25 h,"[1]; lung, Block: 500-fold (0.5 mg) excess unlabelled FROP-1, 15 min p.i., n = 3, read-out: Lung uptake",0.6 ± 0.04 %ID/g
same,tissue uptake at 0.25 h,"[1]; muscle, 1 ug, i.v. tail vein 1 μg, 15 min p.i., n = 4, read-out: Muscle uptake",0.08 ± 0.01 %ID/g
same,tissue uptake at 0.5 h,"[1]; muscle, 1 ug, i.v. tail vein 1 μg, n = 4, read-out: Muscle uptake",0.21 ± 0.16 %ID/g
same,tissue uptake at 0.25 h,"[1]; muscle, Block: 500-fold (0.5 mg) excess unlabelled FROP-1, 15 min p.i., n = 3, read-out: Muscle uptake",0.15 ± 0.01 %ID/g
same,tissue uptake at 0.25 h,"[1]; salivary gland and thyroid, 1 ug, i.v. tail vein 1 μg, 15 min p.i., n = 4, read-out: S.T (Salivary Gland and Thyroid) uptake",0.25 ± 0.03 %ID/g
same,tissue uptake at 0.5 h,"[1]; salivary gland and thyroid, 1 ug, i.v. tail vein 1 μg, n = 4, read-out: S.T (Salivary Gland and Thyroid) uptake",0.32 ± 0.22 %ID/g
same,tissue uptake at 0.25 h,"[1]; salivary gland and thyroid, Block: 500-fold (0.5 mg) excess unlabelled FROP-1, 15 min p.i., n = 3, read-out: S.T (Salivary Gland and Thyroid) uptake",0.25 ± 0.01 %ID/g
same,tissue uptake at 0.25 h,"[1]; spleen, 1 ug, i.v. tail vein 1 μg, 15 min p.i., n = 4, read-out: Spleen uptake",0.15 ± 0.01 %ID/g
same,tissue uptake at 0.5 h,"[1]; spleen, 1 ug, i.v. tail vein 1 μg, n = 4, read-out: Spleen uptake",0.28 ± 0.11 %ID/g
same,tissue uptake at 0.25 h,"[1]; spleen, Block: 500-fold (0.5 mg) excess unlabelled FROP-1, 15 min p.i., n = 3, read-out: Spleen uptake",0.23 ± 0.07 %ID/g
same,tissue uptake at 0.25 h,"[1]; stomach, 1 ug, i.v. tail vein 1 μg, 15 min p.i., n = 4, read-out: Stomach uptake",0.21 ± 0.01 %ID/g
same,tissue uptake at 0.5 h,"[1]; stomach, 1 ug, i.v. tail vein 1 μg, n = 4, read-out: Stomach uptake",0.33 ± 0.12 %ID/g
same,tissue uptake at 0.25 h,"[1]; stomach, Block: 500-fold (0.5 mg) excess unlabelled FROP-1, 15 min p.i., n = 3, read-out: Stomach uptake",0.26 ± 0.01 %ID/g
same,tissue to tissue ratio at 0.25 h,"[1]; tumor and blood, 1 ug, 15 min p.i., n = 4, read-out: Tumor/Blood ratio",0.53 ± 0.15
same,tissue to tissue ratio at 0.5 h,"[1]; tumor and blood, 1 ug, n = 4, read-out: Tumor/Blood ratio",1.09 ± 0.47
same,tissue to tissue ratio at 0.25 h,"[1]; tumor and blood, Block with excess FROP-1, 15 min p.i., n = 3, read-out: Tumor/Blood ratio",0.14 ± 0.06
same,tissue to tissue ratio at 0.25 h,"[1]; tumor and bone, 1 ug, 15 min p.i., n = 4, read-out: Tumor/Bone ratio",1.36 ± 0.28
same,tissue to tissue ratio at 0.5 h,"[1]; tumor and bone, 1 ug, n = 4, read-out: Tumor/Bone ratio",1.57 ± 0.48
same,tissue to tissue ratio at 0.25 h,"[1]; tumor and bone, Block with excess FROP-1, 15 min p.i., n = 3, read-out: Tumor/Bone ratio",0.4 ± 0.09
same,tissue to tissue ratio at 0.25 h,"[1]; tumor and liver, 1 ug, 15 min p.i., n = 4, read-out: Tumor/Liver ratio",1.24 ± 0.28
same,tissue to tissue ratio at 0.5 h,"[1]; tumor and liver, 1 ug, n = 4, read-out: Tumor/Liver ratio",2.62 ± 1.38
same,tissue to tissue ratio at 0.25 h,"[1]; tumor and liver, Block with excess FROP-1, 15 min p.i., n = 3, read-out: Tumor/Liver ratio",0.36 ± 0.13
same,tissue to tissue ratio at 0.25 h,"[1]; tumor and muscle, 1 ug, 15 min p.i., n = 4, read-out: Tumor/Muscle ratio",3.03 ± 0.12
same,tissue to tissue ratio at 0.5 h,"[1]; tumor and muscle, 1 ug, n = 4, read-out: Tumor/Muscle ratio",1.94 ± 0.46
same,tissue to tissue ratio,"[1]; tumor and muscle, 1 ug, MCF-7 tumor-bearing nude mice, only 15 and 30 min p.i. tested, read-out: time of maximum tumor/muscle ratio",15
same,tissue to tissue ratio at 0.25 h,"[1]; tumor and muscle, Block with excess FROP-1, 15 min p.i., n = 3, read-out: Tumor/Muscle ratio",0.6 ± 0.12
same,tissue to tissue ratio at 0.25 h,"[1]; tumor and spleen, 1 ug, 15 min p.i., n = 4, read-out: Tumor/Spleen ratio",1.61 ± 0.22
same,tissue to tissue ratio at 0.5 h,"[1]; tumor and spleen, 1 ug, n = 4, read-out: Tumor/Spleen ratio",1.56 ± 1.04
same,tissue to tissue ratio at 0.25 h,"[1]; tumor and spleen, Block with excess FROP-1, 15 min p.i., n = 3, read-out: Tumor/Spleen ratio",0.42 ± 0.14
same,%RCP in succinate buffer (peptide reaction mixture),[2]; 2 h,99.6 ± 0.2%
same,%RCP in succinate buffer (peptide reaction mixture),[2]; 4 h,99.5 ± 0.4%
same,%RCP in succinate buffer (peptide reaction mixture),[2]; 6 h,99.1 ± 0.9%
same,%RCP in succinate buffer (peptide reaction mixture),[2]; 24 h,96.8 ± 2.4%
same,MCF-7/A-549 ratio of uptake,[3]; [4],8.2
same,MCF-7/PC-3 ratio of uptake,[3]; [4],2.3
same,MCF-7/SKOV-3 ratio of uptake,[3]; [4],8.8
same,MCF-7/T47D ratio of uptake,[3]; [4],4.5
same,MCF-7/HFFF2 ratio of uptake,[3]; HFFF2 = normal human fibroblast,9.7
